Experimental data reported in patent publication US20070248602A1.

Legend:
[1] = biological target: human FcγRIIIa (FIG. 41 data; allotype not given) (human) (UniProt P08637); assay: AlphaScreen competition
[2] = biological target: FcγRIIIa on human PBMCs expressing heterozygous V158/F158 FcγRIIIa (human) (UniProt P08637); assay: cell-based or functional assay
FcγRIIIa on human PBMCs expressing heterozygous V158/F158 FcγRIIIa (human), sequence (P08637 17-254): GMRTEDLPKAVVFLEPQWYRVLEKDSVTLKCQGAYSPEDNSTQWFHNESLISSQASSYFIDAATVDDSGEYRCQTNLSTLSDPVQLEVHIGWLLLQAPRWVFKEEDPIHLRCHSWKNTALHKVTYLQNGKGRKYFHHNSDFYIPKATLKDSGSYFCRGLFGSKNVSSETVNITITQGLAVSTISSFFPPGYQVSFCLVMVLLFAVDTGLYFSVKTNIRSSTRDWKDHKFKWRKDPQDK

human FcγRIIIa (FIG. 41 data; allotype not given) (human), sequence (P08637 17-208): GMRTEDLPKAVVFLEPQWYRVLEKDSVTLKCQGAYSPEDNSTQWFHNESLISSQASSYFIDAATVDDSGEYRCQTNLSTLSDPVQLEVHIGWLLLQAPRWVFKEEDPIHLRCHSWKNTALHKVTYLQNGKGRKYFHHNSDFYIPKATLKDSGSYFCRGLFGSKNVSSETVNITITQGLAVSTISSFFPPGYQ

Row | FcγRIIIa-fold [1] | FcγRIIIa-fold:FcγRIIb-fold [1] | ADCC EC50, DoHH-2 target cells [2] | ADCC Fold WT, DoHH-2 target cells [2] | ADCC log(EC50), DoHH-2 target cells [2] | Substance
1 | 139 fold | 18 | – | – | – | S239D/A330L/I332E Fc variant (FIG. 41 data, antibody context not told in the text)
2 | – | – | 3 ng/mL | 3.3 fold | 0.49 | S239D/I332E alemtuzumab (antibody)
3 | – | – | 4 ng/mL | – | 0.6 | V264I/I332E alemtuzumab (antibody)
4 | 192 fold | – | – | – | – | S239D/I332E Fc variant (FIG. 41 data, antibody context not told in the text)
